According to patent publication US20190177730:

How the values were obtained:
[1] = target: T1, PCSK9 D374Y D374Y (Homo sapiens) (UniProt Q8NBP7+Q8NBP7); assay: filter; conditions: all C = PP-dC (5-position), all U = Nap-dU (5-position); aptamer identity per figure legend; text names 11733-198
[2] = target: T1, PCSK9 D374Y D374Y (Homo sapiens); assay: inhibition; conditions: all C = PP-dC (5-position), all U = Nap-dU (5-position); blocks PCSK9 D374Y binding to LDL-R, room temperature; text names 11733-198

T1 sequence (Q8NBP7 whole entry, stated change not applied, chain 1 of 2): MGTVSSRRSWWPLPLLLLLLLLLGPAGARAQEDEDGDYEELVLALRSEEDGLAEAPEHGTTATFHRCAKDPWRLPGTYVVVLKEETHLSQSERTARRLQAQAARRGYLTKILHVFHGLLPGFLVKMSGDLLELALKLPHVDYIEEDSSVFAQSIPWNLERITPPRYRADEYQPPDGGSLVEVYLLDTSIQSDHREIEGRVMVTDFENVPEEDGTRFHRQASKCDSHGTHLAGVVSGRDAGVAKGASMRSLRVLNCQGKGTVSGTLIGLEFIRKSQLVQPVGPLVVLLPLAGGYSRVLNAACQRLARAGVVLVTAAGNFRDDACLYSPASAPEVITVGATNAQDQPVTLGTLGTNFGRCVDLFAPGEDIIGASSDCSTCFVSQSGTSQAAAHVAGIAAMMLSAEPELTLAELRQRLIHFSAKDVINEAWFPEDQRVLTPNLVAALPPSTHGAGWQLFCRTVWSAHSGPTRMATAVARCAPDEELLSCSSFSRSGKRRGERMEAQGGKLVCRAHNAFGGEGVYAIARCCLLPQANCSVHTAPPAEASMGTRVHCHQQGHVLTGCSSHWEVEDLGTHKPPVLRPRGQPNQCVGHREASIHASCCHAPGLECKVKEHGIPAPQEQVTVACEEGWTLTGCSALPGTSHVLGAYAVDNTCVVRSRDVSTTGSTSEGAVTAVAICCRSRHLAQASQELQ
T1 sequence (Q8NBP7 whole entry, stated change not applied, chain 2 of 2): as the sequence (Q8NBP7 whole entry, stated change not applied, chain 1 of 2) above

Sequence: AACGUACUUUAAGGCCUAUUGAGGAAACUC [11733-44 (SL1063)]
- Kd [1]: 0.0052 nM
- EC50 [2]: 3.6 nM
